Experimental data as given in US6277976, “Or-1, an orphan receptor belonging to the nuclear receptor family” (Karo Bio AB).

T1: OR-1 (UniProt Q62755 SEQ:1-446)
T1 sequence: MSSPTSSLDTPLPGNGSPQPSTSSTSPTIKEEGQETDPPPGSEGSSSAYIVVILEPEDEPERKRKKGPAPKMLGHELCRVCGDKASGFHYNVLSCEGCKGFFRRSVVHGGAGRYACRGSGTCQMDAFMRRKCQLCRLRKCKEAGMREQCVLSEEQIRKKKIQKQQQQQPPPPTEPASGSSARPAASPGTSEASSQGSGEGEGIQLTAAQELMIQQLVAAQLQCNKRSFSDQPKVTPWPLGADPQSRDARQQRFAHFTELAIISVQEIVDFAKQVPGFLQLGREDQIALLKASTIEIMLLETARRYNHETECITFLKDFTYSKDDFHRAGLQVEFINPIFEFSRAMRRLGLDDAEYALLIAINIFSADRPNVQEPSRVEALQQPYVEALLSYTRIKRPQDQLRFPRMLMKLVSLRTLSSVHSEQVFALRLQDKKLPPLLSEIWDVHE

T2: RXR (RXRalpha) (UniProt Q05343 Q05343:1-467)
T2 sequence: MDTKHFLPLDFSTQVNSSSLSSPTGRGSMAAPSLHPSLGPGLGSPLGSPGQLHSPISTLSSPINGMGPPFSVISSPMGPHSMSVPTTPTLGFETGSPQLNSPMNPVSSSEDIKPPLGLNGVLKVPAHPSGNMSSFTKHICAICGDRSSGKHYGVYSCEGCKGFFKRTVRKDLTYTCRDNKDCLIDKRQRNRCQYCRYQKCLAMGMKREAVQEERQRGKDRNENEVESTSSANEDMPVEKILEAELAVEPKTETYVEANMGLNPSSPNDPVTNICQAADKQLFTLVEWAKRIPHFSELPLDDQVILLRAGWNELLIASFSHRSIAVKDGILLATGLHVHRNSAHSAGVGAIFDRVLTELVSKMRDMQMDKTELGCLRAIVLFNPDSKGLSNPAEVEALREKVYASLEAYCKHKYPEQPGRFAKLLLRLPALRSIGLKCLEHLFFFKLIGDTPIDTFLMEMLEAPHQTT

T3: OR-1/RXR heterodimer (UniProt Q62755;Q05343 Q62755:1-446,Q05343:1-467)
T3 sequence 1: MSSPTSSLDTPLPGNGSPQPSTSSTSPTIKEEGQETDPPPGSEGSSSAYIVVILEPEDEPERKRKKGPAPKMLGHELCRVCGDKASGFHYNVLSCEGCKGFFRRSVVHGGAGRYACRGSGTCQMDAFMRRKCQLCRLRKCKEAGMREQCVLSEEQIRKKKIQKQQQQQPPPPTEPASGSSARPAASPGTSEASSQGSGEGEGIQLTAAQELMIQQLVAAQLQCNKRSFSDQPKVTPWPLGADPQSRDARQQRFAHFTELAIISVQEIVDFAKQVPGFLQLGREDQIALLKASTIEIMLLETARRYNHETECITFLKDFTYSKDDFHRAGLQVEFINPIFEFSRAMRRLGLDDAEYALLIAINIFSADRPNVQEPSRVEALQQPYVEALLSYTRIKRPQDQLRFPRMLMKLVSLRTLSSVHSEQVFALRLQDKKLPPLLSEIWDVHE
T3 sequence 2: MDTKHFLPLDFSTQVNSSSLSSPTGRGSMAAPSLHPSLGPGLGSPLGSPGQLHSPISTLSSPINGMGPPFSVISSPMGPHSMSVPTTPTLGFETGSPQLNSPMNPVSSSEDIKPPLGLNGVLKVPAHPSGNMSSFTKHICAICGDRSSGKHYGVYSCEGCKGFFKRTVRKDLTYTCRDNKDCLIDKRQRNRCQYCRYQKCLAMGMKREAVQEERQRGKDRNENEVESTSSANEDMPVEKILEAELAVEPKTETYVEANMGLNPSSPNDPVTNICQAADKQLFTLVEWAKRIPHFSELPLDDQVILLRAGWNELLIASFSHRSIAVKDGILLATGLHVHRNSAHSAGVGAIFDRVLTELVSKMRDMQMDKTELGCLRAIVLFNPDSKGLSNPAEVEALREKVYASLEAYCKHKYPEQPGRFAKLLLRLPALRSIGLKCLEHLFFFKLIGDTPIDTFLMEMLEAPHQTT


How the values were obtained:
OR-1 [1] = target: T1, OR-1; assay: EMSA; OR-1 alone; details: tags: none; TNT reticulocyte lysate; label: 32P
Experimental: (§1) Gel shifts were performed using in vitro-translated OR-1 and RXR with the commercially-available TNT™-coupled reticulocyte lysate system (Promega, Madison USA). Proteins were incubated on ice for 15 min with 4 μg of poly (dI-dC) and with unlabelled competitor DNA where indicated in a solution comprising 100 mM KCl; 10 mM Hepes, pH 7.6; 1 mM dithiothreitol; 1 mM EDTA; 10% (wt./vol) glycerol, before addition of 0.5 ng of a ^32P-end labelled oligonucleotide probe. The reaction mixtures were incubated for a further 10 min at 22° C. before electrophoresis at 200V and 4° C. in pre-run 4% polyacryliamide/0.25 TBE (0.089 m tris-borate pH 8.3, 0.025 EDTA) gels. The following oligonucleotides and their complements were used as probes: DR0 […] (SEQ ID NO:3) DR1 […] (SEQ ID NO:4) DR2 […] (SEQ ID NO:5) DR3 […] (SEQ ID NO:6) DR4 […] (SEQ ID NO:7) DR5 […] (SEQ ID NO:8) DR6 […] (SEQ ID NO:9)
(§2) The appearance of this complex depends on the presence of RXR and is inhibited by a 10-fold excess of the specific DNA target element, but not by a 100-fold excess of an unrelated DNA element—see FIG. 5B, lane 7)

RXR (RXRalpha) = target: T2, RXR (RXRalpha); assay: EMSA; RXR alone; details: tags: none; pRRXR-T7, TNT reticulocyte lysate; label: 32P
Experimental: as §1, §2

OR-1/RXR heterodimer = target: T3, OR-1/RXR heterodimer; assay: EMSA; 100 mM KCl, 10 mM Hepes pH 7.6, 1 mM EDTA, 22 C; inhibited by 10-fold excess specific DNA, not by 100-fold unrelated DNA; details: tags: RXR from pRRXR-T7; label: 32P
Experimental: as §1, §2

OR-1 [2] = target: T1, OR-1; assay: EMSA; OR-1 alone; details: tags: none; TNT reticulocyte lysate; label: 32P; remark: listed apart in the source
Experimental: as §1

Row | Binder | binding result (OR-1 [2]) | further results
1 | DR4 (dsDNA) DNA 1: AGTCAGGTCACTCGAGGTCAGTCA DNA 2: TGACTGACCTCGAGTGACCTGACT |  | binding result (OR-1 [1]): no binding; binding result (RXR (RXRalpha)): no binding; binding result (OR-1/RXR heterodimer): binds
2 | DR0 (dsDNA) DNA 1: AGCTTCAGGTCAAGGTCAGGTTCA DNA 2: TGAACCTGACCTTGACCTGAAGCT | no binding | 
3 | DR1 (dsDNA) DNA 1: AGCTTCAGGTCACAGGTCAGTTCA DNA 2: TGAACTGACCTGTGACCTGAAGCT | no binding | 
4 | DR2 (dsDNA) DNA 1: AGCTTAGGTCACCAGGTCAGTTCA DNA 2: TGAACTGACCTGGTGACCTAAGCT |  | binding result (OR-1 [1]): no binding
5 | DR3 (dsDNA) DNA 1: AGTCCAGGTCACTCAGGTCAGTCA DNA 2: TGACTGACCTGAGTGACCTGGACT | no binding | 
6 | DR5 (dsDNA) DNA 1: AGTCAGGTCACTCGTAGGTCAGTCA DNA 2: TGACTGACCTACGAGTGACCTGACT | no binding | 
7 | DR6 (dsDNA) DNA 1: AGTCAGGTCACTCGTTAGGTCAGTCA DNA 2: TGACTGACCTAACGAGTGACCTGACT | no binding | 
